Test results reported in patent EP4775226A1, “ANTIBODY DRUG CONJUGATE TARGETING GPC3 AND USE THEREOF” (priority 2023, dated 2025).

How the values were obtained:
[1] = molecular target: T1, human GPC3 (Glypican-3) (human, UniProt P51654 25-580); test: FACS on Huh7 liver cancer cells
T1 construct: whole, on cells; The cell line of each value is named under assay

[2] = molecular target: T1, human GPC3 (Glypican-3); test: cell-based or functional assay
[3] = molecular target: T1, human GPC3 (Glypican-3); test: cell-based or functional assay; remark: listed apart in the source
[4] = molecular target: T1, human GPC3 (Glypican-3); test: FACS on GPC3-CHO-K1 cells (CHO-K1 overexpressing human GPC3)
[5] = molecular target: T1, human GPC3 (Glypican-3); test: FACS on HepG2 cells
[6] = molecular target: T1, human GPC3 (Glypican-3); test: FACS on Huh-7 cells

T1 sequence (P51654 25-580, form in doubt): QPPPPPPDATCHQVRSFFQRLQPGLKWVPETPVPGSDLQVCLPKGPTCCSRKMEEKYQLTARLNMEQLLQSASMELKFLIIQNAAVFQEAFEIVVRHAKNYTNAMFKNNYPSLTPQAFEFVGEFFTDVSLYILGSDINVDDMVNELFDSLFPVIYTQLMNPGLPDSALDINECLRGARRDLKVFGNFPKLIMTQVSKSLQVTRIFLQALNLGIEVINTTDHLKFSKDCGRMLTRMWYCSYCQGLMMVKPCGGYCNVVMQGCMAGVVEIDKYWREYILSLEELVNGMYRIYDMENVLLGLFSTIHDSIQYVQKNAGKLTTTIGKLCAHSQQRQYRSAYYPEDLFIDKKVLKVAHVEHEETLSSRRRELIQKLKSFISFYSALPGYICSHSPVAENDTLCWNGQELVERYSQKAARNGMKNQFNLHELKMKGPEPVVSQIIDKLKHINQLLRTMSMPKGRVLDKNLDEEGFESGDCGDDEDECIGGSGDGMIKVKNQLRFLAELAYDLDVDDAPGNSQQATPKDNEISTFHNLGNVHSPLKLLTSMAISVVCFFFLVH

B1: Hu 52H5D3B8-8-mcc-AAQ-Exatecan (ADC-4) (antibody, human IgG1, kappa, DAR 8.0, V domains shown)
VH: EVQLVQSGAEVKKPGASVKVSCKASGYTFTDYEMHWVRQAPGQGLEWMGAIHPGSGGTAYNQKFKGRVTMTADKSISTAYMELSRLRSDDTAVYYCTRFYSYAYWGQGTLVTVSS
VL: DVVMTQTPLSLSVTPGQPASISCRSSQSLVHSNGNTYLQWYLQKPGQSPQLLIYKVSNRFSGVPDRFSGSGSGTDFTLKISRVEAEDVGVYFCSQSIHVPYTFGGGTKVEIKR
modifications: mcc-AAQ-Exatecan on cysteine thiols freed by reduction of interchain disulfide bonds; DAR 8.0 for the whole antibody; positions not given
notes: also called Hu 52H5D3B8-8-MCC-AAQ-Exa (ADC-4)
B1 was tested, and the EC50 [1] was 0.0675 µg/mL, the “Percentage reduction of GPC3 on cell surface (%), Huh7 cells, 0.5 h” value [2] was 18.9% and the “Percentage reduction of GPC3 on cell surface (%), Huh7 cells, 1 h” value [2] was 36.2%. The “Percentage reduction of GPC3 on cell surface (%), Huh7 cells, 2 h” value [2] was 50.2% and the “EC50 value of cell killing activity in Huh7 cells” value (from here on “EC50 value”) [3] was 14.9 ng/mL.

B2: Hu 52H5D3B8-7-mcc-AAQ-Exatecan (ADC-5) (antibody, human IgG1, kappa, DAR 7.9, V domains shown)
VH: EVQLVQSGAEVKKPGASVKVSCKASGYTFTDYEMHWVRQAPGQGLEWMGAIHPGSGGTAYNQKFKGRVTMTADKSISTAYMELSRLRSDDTAVYYCTRFYSYAYWGQGTLVTVSS
VL: DVVMTQTPLSLSVTPGQPASISCRSSQSLVHSNGNTYLQWYLQKPGQSPQLLIYKVSNRFSGVPDRFSGSGSGTDFTLKISRVEAEDVGVYYCSQSIHVPYTFGGGTKVEIKR
modifications: mcc-AAQ-Exatecan on cysteine thiols freed by reduction of interchain disulfide bonds; DAR 7.9 for the whole antibody; positions not given
With B2 the “EC50 value” value [3] was 16.4 ng/mL.

B3: Hu 52H5D3B8-8-mcc-AAQ-Exatecan (ADC-6) (antibody, human IgG1, kappa, DAR 4.0, V domains shown)
VH: EVQLVQSGAEVKKPGASVKVSCKASGYTFTDYEMHWVRQAPGQGLEWMGAIHPGSGGTAYNQKFKGRVTMTADKSISTAYMELSRLRSDDTAVYYCTRFYSYAYWGQGTLVTVSS
VL: DVVMTQTPLSLSVTPGQPASISCRSSQSLVHSNGNTYLQWYLQKPGQSPQLLIYKVSNRFSGVPDRFSGSGSGTDFTLKISRVEAEDVGVYFCSQSIHVPYTFGGGTKVEIKR
modifications: mcc-AAQ-Exatecan on cysteine thiols freed by partial reduction of interchain disulfide bonds; DAR 4.0 for the whole antibody; positions not given
B3 was tested, and the “EC50 value” value [3] was 30.6 ng/mL.

B4: Hu 52H5D3B8-7-mcc-AAQ-Exatecan (ADC-7) (antibody, human IgG1, kappa, DAR 4.0, V domains shown)
VH: EVQLVQSGAEVKKPGASVKVSCKASGYTFTDYEMHWVRQAPGQGLEWMGAIHPGSGGTAYNQKFKGRVTMTADKSISTAYMELSRLRSDDTAVYYCTRFYSYAYWGQGTLVTVSS
VL: DVVMTQTPLSLSVTPGQPASISCRSSQSLVHSNGNTYLQWYLQKPGQSPQLLIYKVSNRFSGVPDRFSGSGSGTDFTLKISRVEAEDVGVYYCSQSIHVPYTFGGGTKVEIKR
modifications: mcc-AAQ-Exatecan on cysteine thiols freed by partial reduction of interchain disulfide bonds; DAR 4.0 for the whole antibody; positions not given
In the case of B4, the “EC50 value” value [3] is reported as 27.9 ng/mL.

B5: Hu 52H5D3B8-8-MCC-AA-(3-cyano-L-alanine)-Exatecan (ADC-8) (antibody, human IgG1, kappa, DAR 8.0, V domains shown)
VH: EVQLVQSGAEVKKPGASVKVSCKASGYTFTDYEMHWVRQAPGQGLEWMGAIHPGSGGTAYNQKFKGRVTMTADKSISTAYMELSRLRSDDTAVYYCTRFYSYAYWGQGTLVTVSS
VL: DVVMTQTPLSLSVTPGQPASISCRSSQSLVHSNGNTYLQWYLQKPGQSPQLLIYKVSNRFSGVPDRFSGSGSGTDFTLKISRVEAEDVGVYFCSQSIHVPYTFGGGTKVEIKR
modifications: mcc-Ala-Ala-(3-cyano-L-alanine)-Exatecan on cysteine thiols freed by reduction of interchain disulfide bonds; DAR 8.0 for the whole antibody; positions not given
B5 was tested, and the “EC50 value” value [3] was 7.34 ng/mL.

B6: Hu 52H5D3B8-8-MCC-AAAAQ-Exatecan (ADC-9) (antibody, human IgG1, kappa, DAR 8.0, V domains shown)
VH: EVQLVQSGAEVKKPGASVKVSCKASGYTFTDYEMHWVRQAPGQGLEWMGAIHPGSGGTAYNQKFKGRVTMTADKSISTAYMELSRLRSDDTAVYYCTRFYSYAYWGQGTLVTVSS
VL: DVVMTQTPLSLSVTPGQPASISCRSSQSLVHSNGNTYLQWYLQKPGQSPQLLIYKVSNRFSGVPDRFSGSGSGTDFTLKISRVEAEDVGVYFCSQSIHVPYTFGGGTKVEIKR
modifications: mcc-Ala-Ala-Ala-Ala-Gln-Exatecan on cysteine thiols freed by reduction of interchain disulfide bonds; DAR 8.0 for the whole antibody; positions not given
For B6, the “EC50 value” value [3] was 4.78 ng/mL.

B7: GC33 antibody (Chugai Pharmaceutical) (antibody, V domains shown)
VH: QVQLVQSGAEVKKPGASVKVSCKASGYTFTDYEMHWVRQAPGQGLEWMGALDPKTGDTAYSQKFKGRVTLTADKSTSTAYMELSSLTSEDTAVYYCTRFYSYTYWGQGTLVTVSS
VL: DVVMTQSPLSLPVTPGEPASISCRSSQSLVHSNGNTYLHWYLQKPGQSPQLLIYKVSNRFSGVPDRFSGSGSGTDFTLKISRVEAEDVGVYYCSQNTHVPPTFGQGTKLEIK
notes: Control antibody; preparation described in US 7919086 B2; detected with anti-human IgG
Work on B7 yielded an EC50 [4] of 0.956 nM, an EC50 [5] of 0.745 nM and an EC50 [6] of 0.953 nM.
